Laboratory results from publication doi:10.1101/2025.05.23.655772, “A Proteolytic Switch: USP5 controls SDE2 function via UBL-directed cleavage” (bioRxiv, 2025).
Substitutions are numbered along the chain they refer to. Numbers in names are those of the source.

B1: HA-SDE2UBL-PA, activity-based probe derived from SDE2UBL (domain or fragment, human, UniProt Q6IQ49 1-76, looked up)
chain: MAEAAALVWIRGPGFGCKAVRCASGRCTVRDFIHRHCQDQNVPVENFFVKCNGALINTSDTVQHGAVYSLEPRLCG
modifications: Gly77 replaced with a propargyl electrophilic warhead (C-terminal propargylamine)
notes: Silencing Defective 2 (SDE2), human, residues 1-76 (SDE2UBL with Gly77 truncated); Forms a covalent adduct with the catalytic cysteine of reactive enzymes; also called HA-SDE2UBL-ABP; SDE2UBL-ABP; not shown: HA, N-terminal, kept
B2: ubiquitin-specific protease 5, wild type (enzyme, human, UniProt P45974 1-858, looked up)
chain: MAELSEEALLSVLPTIRVPKAGDRVHKDECAFSFDTPESEGGLYICMNTFLGFGKQYVERHFNKTGQRVYLHLRRTRRPKEEDPATGTGDPPRKKPTRLAIGVEGGFDLSEEKFELDEDVKIVILPDYLEIARDGLGGLPDIVRDRVTSAVEALLSADSASRKQEVQAWDGEVRQVSKHAFSLKQLDNPARIPPCGWKCSKCDMRENLWLNLTDGSILCGRRYFDGSGGNNHAVEHYRETGYPLAVKLGTITPDGADVYSYDEDDMVLDPSLAEHLSHFGIDMLKMQKTDKTMTELEIDMNQRIGEWELIQESGVPLKPLFGPGYTGIRNLGNSCYLNSVVQVLFSIPDFQRKYVDKLEKIFQNAPTDPTQDFSTQVAKLGHGLLSGEYSKPVPESGDGERVPEQKEVQDGIAPRMFKALIGKGHPEFSTNRQQDAQEFFLHLINMVERNCRSSENPNEVFRFLVEEKIKCLATEKVKYTQRVDYIMQLPVPMDAALNKEELLEYEEKKRQAEEEKMALPELVRAQVPFSSCLEAYGAPEQVDDFWSTALQAKSVAVKTTRFASFPDYLVIQIKKFTFGLDWVPKKLDVSIEMPEELDISQLRGTGLQPGEEELPDIAPPLVTPDEPKGSLGFYGNEDEDSFCSPHFSSPTSPMLDESVIIQLVEMGFPMDACRKAVYYTGNSGAEAAMNWVMSHMDDPDFANPLILPGSSGPGSTSAAADPPPEDCVTTIVSMGFSRDQALKALRATNNSLERAVDWIFSHIDDLDAEAAMDISEGRSAADSISESVPVGPKVRDGPGKYQLFAFISHMGTSTMCGHYVCHIKKEGRWVIYNDQKVCASEKPPKDLGYIYFYQRVAS
notes: ubiquitin-specific protease 5 (USP5), human; No removal of the His tag is described; also called USP5; USP5^WT; source: E. coli BL21 (DE3), purified (Ni-NTA, SEC)
B3: catalytically inactive USP5 C335A (enzyme, human, UniProt P45974 1-858, looked up)
chain: B2 chain with C335A
notes: ubiquitin-specific protease 5 (USP5), human, catalytic cysteine mutated; The His tag is used for detection in the TR-FRET assay; also called His-USP5^C335A; source: E. coli BL21 (DE3), purified (Ni-NTA, SEC)
B4: SDE2 N-terminal ubiquitin-like domain, SDE2UBL(1-77) (domain or fragment, human, UniProt Q6IQ49 1-77, looked up)
chain: MAEAAALVWIRGPGFGCKAVRCASGRCTVRDFIHRHCQDQNVPVENFFVKCNGALINTSDTVQHGAVYSLEPRLCGG
notes: Silencing Defective 2 (SDE2), human, residues 1-77 (ubiquitin-like domain ending in the Gly-Gly motif); source: E. coli BL21 (DE3), purified (Ni-NTA, SUMO protease cleavage, SEC); not shown: His, N-terminal, cleaved; SUMO, N-terminal, cleaved

Columns and labels:
Conditions in all cases: both partners purified
[1] = biological target: B2; experiment: thermal shift assay; USP5^WT incubated with ABP for 1 h at 37 °C in PBS, 1 mM DTT, then SYPRO orange, 10-95 °C; Tm of the USP5-ABP covalent complex; triplicate
[2] = biological target: T1, monoubiquitin (UniProt P0CG48 1-76); experiment: ITC; ITC200 at 298 K; 50 mM HEPES, 100 mM NaCl, 1 mM TCEP, pH 7.5; SDE2 construct or monoubiquitin titrated into USP5 (10-12 µM); duplicate
T1 construct: ubiquitin, the mature monomer

[3] = biological target: B3; experiment: as above
[4] = biological target: B2; experiment: as above

Binder: B1
- Tm of the covalent complex [1]: 56.4 ± 0.2 °C

Binder: B2
- binding result [2]: binds

Binder: B3
- binding result [2]: binds

Binder: B4
- Kd [3]: 1.67 µM
- Kd [4]: 26.6 ± 5 µM
